Bridges are numbered along the chain shown (N, C = ends). [ ]: non-standard residue; d: D form. Bpa = N[C@@H](Cc1ccc(C(=O)c2ccccc2)cc1)C(=O)O; 1Nal = N[C@@H](Cc1cccc2ccccc12)C(=O)O; 2Nal = N[C@@H](Cc1ccc2ccccc2c1)C(=O)O; Igl = N[C@H](C(=O)O)C1Cc2ccccc2C1
Assays:
[1] = target: complement component C3 (human, in normal human plasma) (human) (UniProt P01024); test: cell-based or functional assay
[2] = target: complement component C3 (human, in normal human plasma) (human, UniProt P01024 23-1663); test: cell-based or functional assay

Compstatin analog with Ile substituted for Thr at position 13 (peptide)
complement-inhibitory activity compared with Compstatin (fold over Compstatin) [1]: 21

B1: Ac-4(2-Nal),9A (peptide)
peptide: Ac-ICV[2Nal]QDWGAHRCT-NH2
modifications: disulfide 2-12 (inferred)
Activity over Compstatin (inhibition of C3b/iC3b deposition on immunocomplexes in human plasma, compared by IC50) [2]: 66 fold over Compstatin

B2: +G,4W,9A + AN-OH (peptide)
peptide: H-GICVWQDWGAHRCTAN-OH
modifications: disulfide 3-13
SMILES: CC[C@H](C)[C@H](NC(=O)CN)C(=O)N[C@H]1CSSC[C@@H](C(=O)N[C@H](C(=O)N[C@@H](C)C(=O)N[C@@H](CC(N)=O)C(=O)O)[C@@H](C)O)NC(=O)[C@H](CCCNC(=N)N)NC(=O)[C@H](Cc2c[nH]cn2)NC(=O)[C@H](C)NC(=O)CNC(=O)[C@H](Cc2c[nH]c3ccccc23)NC(=O)[C@H](CC(=O)O)NC(=O)[C@H](CCC(N)=O)NC(=O)[C@H](Cc2c[nH]c3ccccc23)NC(=O)[C@H](C(C)C)NC1=O
Activity over Compstatin (inhibition of C3b/iC3b deposition on immunocomplexes in human plasma, compared by IC50) [2]: 38 fold over Compstatin

B3: Ac-4Y,9A (peptide)
peptide: Ac-ICVYQDWGAHRCT-NH2
modifications: disulfide 2-12
SMILES: CC[C@H](C)[C@H](NC(C)=O)C(=O)N[C@H]1CSSC[C@@H](C(=O)N[C@H](C(N)=O)[C@@H](C)O)NC(=O)[C@H](CCCNC(=N)N)NC(=O)[C@H](Cc2c[nH]cn2)NC(=O)[C@H](C)NC(=O)CNC(=O)[C@H](Cc2c[nH]c3ccccc23)NC(=O)[C@H](CC(=O)O)NC(=O)[C@H](CCC(N)=O)NC(=O)[C@H](Cc2ccc(O)cc2)NC(=O)[C@H](C(C)C)NC1=O
Activity over Compstatin (inhibition of C3b/iC3b deposition on immunocomplexes in human plasma, compared by IC50) [2]: 19 fold over Compstatin

B4: Ac-4IgI,9A (peptide)
peptide: Ac-ICV[Igl]QDWGAHRCT-NH2
modifications: disulfide 2-12 (inferred)
Activity over Compstatin (inhibition of C3b/iC3b deposition on immunocomplexes in human plasma, compared by IC50) [2]: 55 fold over Compstatin

B5: Ac-4IgI,9A-OH (peptide)
peptide: Ac-ICV[Igl]QDWGAHRCT-OH
modifications: disulfide 2-12 (inferred)
Activity over Compstatin (inhibition of C3b/iC3b deposition on immunocomplexes in human plasma, compared by IC50) [2]: 55 fold over Compstatin

B6: Ac-4Dht,9A-OH (peptide)
peptide: ICVXQDWGAHRCT
modifications: N-terminal acetyl; dihydrotryptophan (Dht) at position 4; free C-terminal acid (COOH); disulfide bond between the two Cys residues
Activity over Compstatin (inhibition of C3b/iC3b deposition on immunocomplexes in human plasma, compared by IC50) [2]: 9 fold over Compstatin

B7: Ac-4(2-Nal),9A-OH (peptide)
peptide: Ac-ICV[2Nal]QDWGAHRCT-OH
modifications: disulfide 2-12 (inferred)
Activity over Compstatin (inhibition of C3b/iC3b deposition on immunocomplexes in human plasma, compared by IC50) [2]: 39 fold over Compstatin

B8: Ac-4(1-Nal),9A-OH (peptide)
peptide: Ac-ICV[1Nal]QDWGAHRCT-OH
modifications: disulfide 2-12 (inferred)
Activity over Compstatin (inhibition of C3b/iC3b deposition on immunocomplexes in human plasma, compared by IC50) [2]: 23 fold over Compstatin

B9: Ac-4(Bpa),9A-OH (peptide)
peptide: Ac-ICV[Bpa]QDWGAHRCT-OH
modifications: disulfide 2-12 (inferred)
Activity over Compstatin (inhibition of C3b/iC3b deposition on immunocomplexes in human plasma, compared by IC50) [2]: 55 fold over Compstatin

From patent publication US20180118785A1 (University of Pennsylvania, published 2018)
